Measurements from PMC5805349, “Recombinant expression, purification and biochemical characterization of kievitone hydratase from Nectria haematococca” (PLoS ONE, 2018).

What was measured:
FsKHS = target: T1, FsKHS (Fusarium phaseoli, UniProt Q00870); assay: HPLC conversion assay with P. pastoris culture supernatant; type: biochemical; settings: 2 mM kievitone, 35°C, culture supernatant of P. pastoris expressing FsKHS, mere turnover
T1 construct: gene khs; 19-residue signal peptide cleaved between Ala19 and Ser20; C-terminal His10 tag

[1] = tested on: COc1cc(O)c(CC=C(C)C)c(O)c1C(=O)/C=C/c1ccc(O)cc1; assay: purified protein; settings: 50 mM sodium citrate, pH 6.0, 35°C, 2% v/v ethanol, 0.05 mg/mL enzyme, apparent because of low XN solubility, water is co-substrate

T1 sequence (Q00870 20-350): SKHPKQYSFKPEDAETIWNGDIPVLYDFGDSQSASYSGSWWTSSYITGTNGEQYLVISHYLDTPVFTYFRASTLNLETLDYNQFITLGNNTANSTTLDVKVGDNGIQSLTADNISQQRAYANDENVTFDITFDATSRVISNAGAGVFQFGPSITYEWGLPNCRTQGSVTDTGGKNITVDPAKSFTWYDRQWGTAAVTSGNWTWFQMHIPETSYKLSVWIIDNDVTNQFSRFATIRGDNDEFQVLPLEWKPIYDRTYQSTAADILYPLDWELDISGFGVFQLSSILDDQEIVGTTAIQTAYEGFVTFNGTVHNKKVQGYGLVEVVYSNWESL

Row | Compound | % substrate converted in 3 h (FsKHS) | Km [1] | kcat [1]
1 | CC(C)=CCc1c(O)cc(O)c2c1OCC(c1ccc(O)cc1O)C2=O (stereo not drawn) [KV, kievitone] | ~ 89% |  | 
2 | NhKHS (Fusarium vanettenii 77-13-4) |  | 0.98 ± 0.13 mM | 4.77 ± 0.33 s⁻¹
